Assay results taken from patent publication US7070943B2 (priority 1998, dated 2006).

Experiments:
Type in all cases: cell-based, Human
p16^INK4a = p16^INK4a expression by flow cytometry in U937 cells; conditions: U937, 170 nM, 72 hours
Procedure: Proportions of cells in different phases of the cycle were the same as in FIG. 12;
(§1) Following incubations in the absence or presence of ONCONASE®, the cells were washed with phosphate-buffered saline (PBS) and fixed in suspension in either ice-cold 80% ethanol or absolute methanol for up to 24 h. After fixation, the cells were washed twice with PBS and then suspended in 1 ml of 0.25% Triton X-100 (Sigma, St. Louis, Mo., USA) in PBS on ice for 5 min. The cells were then centrifuged (300 g, 5 min), the cell pellet suspended 100 μl PBS containing 0.5 μg of the anti-cyclin (or anti-CKI) mAb and 1% bovine serum albumin (BSA; Sigma), and incubated for 2 h at room temperature. […]
(§2) Cellular fluorescence was measured with the ELITE ESP flow cytometer/cell sorter (Coulter, Miami, Fla., USA) using either argon ion laser (emission at 488 nm) alone or combined with helium-cadmium laser (emitting UV light). In the first case, fluorescence signals were collected using the standard configuration of the flow cytometer (green fluorescence, representing directly or indirectly FITC-labeled antibodies; red fluorescence representing CYCHROME® tagged anti-pRB^T mAb). In the second case, DNA content was analyzed based on DAPI fluorescence (blue emission) excited by UV light, while the anti-pRB^P− mAb (FITC) and anti-pRB^T (Cy-Chrome®) related emission was excited with blue light laser.

U937 cells = test: Growth and viability of U937 cells, trypan blue exclusion; conditions: U937, 170 nM (20 μg/ml)
Description: FIG. […] The percentage of dead cells was estimated based on the trypan blue exclusion test. The percentage of cells in the respective phases was estimated flow cytometrically based on their DNA content. Apoptotic cells (Ap) were recognized as the cells with fractional DNA content (sub-G1), as previously described;
Human histiocytic lymphoma U-937 cells were purchased from American Type Culture Collection (Manassas, Va., USA) and were maintained in RPMI 1640 medium supplemented with 10% fetal bovine serum, 100 U/ml of penicillin, 100 μg/ml streptomycin and 2 mM glutamine (all from Life Technologies, Grand Island, N.Y., USA). The suspension cultures were passaged by re-seeding the cells at a density of 1×10^5 cells/ml. The cells were studied during their exponential and asynchronous growth, generally within 72 hours of their re-seeding in medium with fresh serum, before reaching density of 8×10^5 cells/ml. The cultures were periodically tested for Mycoplasma infection by staining of cytocentrifuge preparations with the DNA fluorochrome 4,6-diamidino-2-phenylindole (DAPI; Molecular Probes, Eugene, Oreg., USA).
ONCONASE®, provided by Alfacell (Bloomfield, N.J., USA), was diluted in RPMI to the final concentrations as shown in the Results below and figure legends above. […]

cyclin D3 = test: Cyclin D3 expression by multiparameter flow cytometry in U937 cells; conditions: U937, 170 nM
Procedure: Anti-cyclin D3 mAb immunofluorescence in combination with DNA content was measured by multiparameter flow cytometry (a). […] There were 48%, 38% and 14% of cells in G1, S, and G2/M in Exp culture compared with 64%, 24% and 13% cells in G1, S, and G2/M, respectively, in Onc culture. The scattergrams represent bivariate distributions of the cells with respect to their cyclin D3 vs. DNA content associated fluorescence intensities. The upper level of the isotype-matched control (mean fluorescence+3 standard deviations) is marked in the Exp panel with a dashed line. The bar plots represent the mean FITC (anti-cyclin D3 mAb) fluorescence values (arbitrary units) of the cells in different phases of the cycle (gated based on differences in DNA content as shown in the Exp panel), after subtraction of the background fluorescence, i.e., mean fluorescence of the same cells but stained with isotype-matched control IgG antibody. […]
Cellular fluorescence was measured with the ELITE ESP flow cytometer/cell sorter (Coulter, Miami, Fla., USA) using either argon ion laser (emission at 488 nm) alone or combined with helium-cadmium laser (emitting UV light). […] In the second case, DNA content was analyzed based on DAPI fluorescence (blue emission) excited by UV light, while the anti-pRB^P− mAb (FITC) and anti-pRB^T (Cy-Chrome®) related emission was excited with blue light laser.

p21^WAF1/CIP1 = p21^WAF1/CIP1 expression by flow cytometry in U937 cells; conditions: U937, 170 nM, 72 hours
Procedure: as §1, §2

underphosphorylated pRB = test: pRB phosphorylation in U937 cells, anti-pRB^P− mAb flow cytometry; conditions: U937, 170 nM
Description: Also shown are cells from the culture at higher cell density (>10^6 cells/ml) where proliferation declined because of cell crowding (d). The cells reacting with anti-pRB^P− were in G0/1 phase (open arrows). The dashed line indicates the upper level of background fluorescence, i.e. of the cells pretreated with alkaline phosphatase. The percentage of cells reacting with anti-pRB^P− mAb was increased in the ONCONASE®-treated and crowded cultures compared to the control. No significant changes in expression of pRB detected by the antibody that reacts with this protein regardless of its phosphorylation status (anti-pRB^T) were observed between ONCONASE®-treated and control cells (not shown).
The status of phosphorylation of pRB in individual cells was monitored using a combination of anti-pRB antibodies, one specifically detecting underphosphorylated pRB (anti-pRb^P− mAb) and another which reacts with total pRB, regardless of its phosphorylation (anti-pRB^T mAb). […] The cells were then rinsed with PBS containing 1% BSA and their pRB associated green (anti-pRB^P−) and red (anti-PRB^T) fluorescence was measured by flow cytometry.
Cellular fluorescence was measured with the ELITE ESP flow cytometer/cell sorter (Coulter, Miami, Fla., USA) using either argon ion laser (emission at 488 nm) alone or combined with helium-cadmium laser (emitting UV light). […]

B1: ONCONASE®: basic protein of 12,000 MW isolated from oocytes or early embryos of Rana pipiens, homologous to pancreatic RNase A (protein, UniProt P22069 1-104, looked up)
Protein P-30: QDWLTFQKKHITNTRDVDCDNIMSTNLFHCKDKNTFIYSRPEPVKAICKGIIASKNVLTTSEFYLSDCNVTSRPCKYKLKKSTNKFCVTCENQAPVHFVGVGSC
increase in level of p16^INK4a (p16^INK4a): over six-fold
cell proliferation suppressed (U937 cells; initial 72 hours of treatment): approximately 50%
cells dead (U937 cells; initial 72 hours, trypan blue): < 10%
decrease of overall level of cyclin D3 (cyclin D3; after 24 h): about 20%
reduction of overall level of cyclin D3 (cyclin D3; after 48 hours): over 70%
increase in p21^WAF1/CIP1 (p21^WAF1/CIP1): Over four-fold
proportion of cells stainable with anti-pRB^P− (underphosphorylated pRB; 48 h (control 2.4%)): 40.5%
proportion of cells stainable with anti-pRB^P− (underphosphorylated pRB; 72 h (control 2.4%)): 43.3%
